What all share (assay): chloride ion selective electrode, initial rates, Michaelis-Menten fit
Conditions in all cases: 10 mM phosphate buffer pH 7.0, 21–23°C, soluble protein fraction

Substrate in data set [1]: [O-][Cl+]O
The data set is classed as biochemical, Nitrospira defluvii. From the text:
chloride ion selective electrode, initial rates, Michaelis-Menten fit on rNdCld

Substrate in data set [2]: [O-][Cl+]O
The class given is biochemical, Nitrobacter winogradskyi. The text has this:
chloride ion selective electrode, initial rates, Michaelis-Menten fit on rNwCld

Substrate in data set [3]: [O-][Cl+]O
The class given is biochemical, Ideonella dechloratans. The text has this: chloride ion selective electrode, initial rates, Michaelis-Menten fit on rIdCld

B1: rNdCld (Nitrospira defluvii) (protein)
chain: ADREKLLTESGVYGTFATFQMDHDWWDLPGESRVISVAEVKGLVEQWSGKILVESYLLRGLSDHADLMFRVHARTLSDTQQFLSAFMGTRLGRHLTSGGLLHGVSKKPTYVAGFPESMKTELQVNGESGSRPYAIVIPIKKDAEWWALDQEARTALMQEHTQAALPYLKTVKRKLYHSTGLDDVDFITYFETERLEDFHNLVRALQQVKEFRHNRRFGHPTLLGTMSPLDEILEKFAQ
notes: recombinant, plasmid pET21b-Ndcld (Dr. Daims) in E. coli BL21 (DE3); soluble protein fraction, not purified
By Km is commonly meant the substrate concentration at which the rate is half of its maximum. On to B1, for which the Km in data set [1] came out at 2500 ± 470 µM.

B2: rNwCld (Nitrobacter winogradskyi Nb-255) (protein)
chain: MTFTVFTGGDSGAWSILSVAPVIGESLMAASHLAIAPSLSLGDTSATTPWQLRGVASHARYVERAEKIALTSVQAGLGRNEATRAALIPIRKSAAWWEMTQDERRAIFEDKSHHIAASLKYLPAIARQLYHCRDIGEPFDFLTWFEYAPEHATMFEDLVGVLRATEEWTYVEREVDIRLARAI
notes: recombinant, plasmid pET21b-Nwcld (Dr. Daims) in E. coli BL21 (DE3); soluble protein fraction, not purified
On to B2, for which the Km in data set [2] was determined as 380 ± 150 µM.

B3: rIdCld (Ideonella dechloratans) (protein)
chain: AMNTPVDRAKILSAPGVFVAFSTYKIRPDYFKVALAERKGAADEVMAVLEKHKEKVIVDAYLTRGYEAKSDYFLRVHAYDAVAAQAFLVDFRATRFGMYSDVTESLVGITKALNYISKDKSPDLNKGLSGATYAGDAPRFAFMIPVKKNADWWNLTDEQRLKEMETHTLPTLPFLVNVKRKLYHSTGLDDTDFITYFETNDLGAFNNLMLSLAKVPENKYHVRWGNPTVLGTIQPIENLVKTLSMGN
notes: recombinant, plasmid pET3a-Idcld (Dr. Rova) in E. coli BL21 (DE3); soluble protein fraction, not purified
Turning to B3, the Km in data set [3] worked out at 320 ± 160 µM.

For the origin of these results see PMC5733030, “Characterizing Isozymes of Chlorite Dismutase for Water Treatment” (Frontiers in Microbiology, 2017).
